# Measured values published in paper PMC13033339.
# What was measured:
# Assay in all cases: cryo-EM structure; genome-packed Douge virions purified from M. smegmatis lysate (PEG, CsCl gradient), vitrified at 4 °C; capsid, connector-vertex, tail tube, baseplate and central fiber reconstructed separately (2.18-4.26 Å) and joined in a composite map; the proteins stood in the assembled virion
# [1] = molecular target: adaptor protein, gp9 of mycobacteriophage Douge (mycobacteriophage Douge)
# [2] = molecular target: baseplate hub protein (BHP), gp18 of mycobacteriophage Douge (mycobacteriophage Douge)
# [3] = molecular target: capsid cement protein (CCP), gp113 of mycobacteriophage Douge (mycobacteriophage Douge)
# [4] = molecular target: central fiber protein (CFP), gp20 of mycobacteriophage Douge (mycobacteriophage Douge)
# [5] = molecular target: distal tail protein (DTP), gp17 of mycobacteriophage Douge (mycobacteriophage Douge)
# [6] = molecular target: portal protein, gp5 of mycobacteriophage Douge (mycobacteriophage Douge)
# [7] = molecular target: stopper protein, gp10 of mycobacteriophage Douge (mycobacteriophage Douge)
# [8] = molecular target: tail tube protein (TTP), gp13 of mycobacteriophage Douge (mycobacteriophage Douge)
# [9] = molecular target: tape measure protein (TMP), gp16 of mycobacteriophage Douge (mycobacteriophage Douge)
# [10] = molecular target: terminator protein, gp12 of mycobacteriophage Douge (mycobacteriophage Douge)
substance,measurement,setting,value
"adaptor protein, gp9 of mycobacteriophage Douge (natural protein)",stoichiometry N,[1],12
"baseplate hub protein (BHP), gp18 of mycobacteriophage Douge (natural protein)",stoichiometry N,[2],3
"capsid cement protein (CCP), gp113 of mycobacteriophage Douge (natural protein)",stoichiometry N,[3],2
"central fiber protein (CFP), gp20 of mycobacteriophage Douge (natural protein)",stoichiometry N,[4],3
"distal tail protein (DTP), gp17 of mycobacteriophage Douge (natural protein)",stoichiometry N,[5],6
"portal protein, gp5 of mycobacteriophage Douge (natural protein)",stoichiometry N,[6],12
"stopper protein, gp10 of mycobacteriophage Douge (natural protein)",stoichiometry N,[7],6
"tail tube protein (TTP), gp13 of mycobacteriophage Douge (natural protein)",stoichiometry N,[8],6
"tape measure protein (TMP), gp16 of mycobacteriophage Douge (natural protein)",stoichiometry N,[9],3
"terminator protein, gp12 of mycobacteriophage Douge (natural protein)",stoichiometry N,[10],6
